# Patent US20160272683A1 (Novo Nordisk, published 2016)
# Numbered stars: 1 amine (or outer) side, 2 acyl side, 3 side chain; on linkers, the order of the positions; unused ones are H or OH. * marks the point of attachment. C20 diacid = O=C(O)CCCCCCCCCCCCCCCCCCC(=O)*; C18 diacid = O=C(O)CCCCCCCCCCCCCCCCC(=O)*; γGlu = O=C(O)[C@H](CCC(=O)[*:2])N[*:1]
# B1: [N-terminal(C20 diacid-gGlu), des1, 30S, 31G, 33S]mimylin (peptide)
# peptide: {C20 diacid-γGlu}-ASELSTAALGRLSAELHELATLPRTETGSGSS-NH2
# SMILES: CC(C)C[C@H](NC(=O)[C@H](C)NC(=O)[C@H](C)NC(=O)[C@@H](NC(=O)[C@H](CO)NC(=O)[C@H](CC(C)C)NC(=O)[C@H](CCC(=O)O)NC(=O)[C@H](CO)NC(=O)[C@H](C)NC(=O)CC[C@H](NC(=O)CCCCCCCCCCCCCCCCCCC(=O)O)C(=O)O)[C@@H](C)O)C(=O)NCC(=O)N[C@@H](CCCNC(=N)N)C(=O)N[C@@H](CC(C)C)C(=O)N[C@@H](CO)C(=O)N[C@@H](C)C(=O)N[C@@H](CCC(=O)O)C(=O)N[C@@H](CC(C)C)C(=O)N[C@@H](Cc1c[nH]cn1)C(=O)N[C@@H](CCC(=O)O)C(=O)N[C@@H](CC(C)C)C(=O)N[C@@H](C)C(=O)N[C@H](C(=O)N[C@@H](CC(C)C)C(=O)N1CCC[C@H]1C(=O)N[C@@H](CCCNC(=N)N)C(=O)N[C@H](C(=O)N[C@@H](CCC(=O)O)C(=O)N[C@H](C(=O)NCC(=O)N[C@@H](CO)C(=O)NCC(=O)N[C@@H](CO)C(=O)N[C@@H](CO)C(N)=O)[C@@H](C)O)[C@@H](C)O)[C@@H](C)O
# B2: [N-terminal(C20 diacid-gGlu), des1, 30S, 31G, 33Y]mimylin (peptide)
# peptide: {C20 diacid-γGlu}-ASELSTAALGRLSAELHELATLPRTETGSGSY-NH2
# SMILES: CC(C)C[C@H](NC(=O)[C@H](C)NC(=O)[C@H](C)NC(=O)[C@@H](NC(=O)[C@H](CO)NC(=O)[C@H](CC(C)C)NC(=O)[C@H](CCC(=O)O)NC(=O)[C@H](CO)NC(=O)[C@H](C)NC(=O)CC[C@H](NC(=O)CCCCCCCCCCCCCCCCCCC(=O)O)C(=O)O)[C@@H](C)O)C(=O)NCC(=O)N[C@@H](CCCNC(=N)N)C(=O)N[C@@H](CC(C)C)C(=O)N[C@@H](CO)C(=O)N[C@@H](C)C(=O)N[C@@H](CCC(=O)O)C(=O)N[C@@H](CC(C)C)C(=O)N[C@@H](Cc1c[nH]cn1)C(=O)N[C@@H](CCC(=O)O)C(=O)N[C@@H](CC(C)C)C(=O)N[C@@H](C)C(=O)N[C@H](C(=O)N[C@@H](CC(C)C)C(=O)N1CCC[C@H]1C(=O)N[C@@H](CCCNC(=N)N)C(=O)N[C@H](C(=O)N[C@@H](CCC(=O)O)C(=O)N[C@H](C(=O)NCC(=O)N[C@@H](CO)C(=O)NCC(=O)N[C@@H](CO)C(=O)N[C@@H](Cc1ccc(O)cc1)C(N)=O)[C@@H](C)O)[C@@H](C)O)[C@@H](C)O
# B3: [N-terminal(C20 diacid-gGlu), des1, 30S, 31G, 33L]mimylin (peptide)
# peptide: {C20 diacid-γGlu}-ASELSTAALGRLSAELHELATLPRTETGSGSL-NH2
# SMILES: CC(C)C[C@H](NC(=O)[C@H](CO)NC(=O)CNC(=O)[C@H](CO)NC(=O)CNC(=O)[C@@H](NC(=O)[C@H](CCC(=O)O)NC(=O)[C@@H](NC(=O)[C@H](CCCNC(=N)N)NC(=O)[C@@H]1CCCN1C(=O)[C@H](CC(C)C)NC(=O)[C@@H](NC(=O)[C@H](C)NC(=O)[C@H](CC(C)C)NC(=O)[C@H](CCC(=O)O)NC(=O)[C@H](Cc1c[nH]cn1)NC(=O)[C@H](CC(C)C)NC(=O)[C@H](CCC(=O)O)NC(=O)[C@H](C)NC(=O)[C@H](CO)NC(=O)[C@H](CC(C)C)NC(=O)[C@H](CCCNC(=N)N)NC(=O)CNC(=O)[C@H](CC(C)C)NC(=O)[C@H](C)NC(=O)[C@H](C)NC(=O)[C@@H](NC(=O)[C@H](CO)NC(=O)[C@H](CC(C)C)NC(=O)[C@H](CCC(=O)O)NC(=O)[C@H](CO)NC(=O)[C@H](C)NC(=O)CC[C@H](NC(=O)CCCCCCCCCCCCCCCCCCC(=O)O)C(=O)O)[C@@H](C)O)[C@@H](C)O)[C@@H](C)O)[C@@H](C)O)C(N)=O
# B4: [N-terminal(C20 diacid-gGlu), 1A, 23Y, 30S, 31G]mimylin (peptide)
# peptide: {C20 diacid-γGlu}-AASELSTAALGRLSAELHELATYPRTETGSGSP-NH2
# SMILES: CC(C)C[C@H](NC(=O)[C@H](C)NC(=O)[C@H](C)NC(=O)[C@@H](NC(=O)[C@H](CO)NC(=O)[C@H](CC(C)C)NC(=O)[C@H](CCC(=O)O)NC(=O)[C@H](CO)NC(=O)[C@H](C)NC(=O)[C@H](C)NC(=O)CC[C@H](NC(=O)CCCCCCCCCCCCCCCCCCC(=O)O)C(=O)O)[C@@H](C)O)C(=O)NCC(=O)N[C@@H](CCCNC(=N)N)C(=O)N[C@@H](CC(C)C)C(=O)N[C@@H](CO)C(=O)N[C@@H](C)C(=O)N[C@@H](CCC(=O)O)C(=O)N[C@@H](CC(C)C)C(=O)N[C@@H](Cc1c[nH]cn1)C(=O)N[C@@H](CCC(=O)O)C(=O)N[C@@H](CC(C)C)C(=O)N[C@@H](C)C(=O)N[C@H](C(=O)N[C@@H](Cc1ccc(O)cc1)C(=O)N1CCC[C@H]1C(=O)N[C@@H](CCCNC(=N)N)C(=O)N[C@H](C(=O)N[C@@H](CCC(=O)O)C(=O)N[C@H](C(=O)NCC(=O)N[C@@H](CO)C(=O)NCC(=O)N[C@@H](CO)C(=O)N1CCC[C@H]1C(N)=O)[C@@H](C)O)[C@@H](C)O)[C@@H](C)O
# B5: [N-terminal(C18 diacid-gGlu), des1, 23Y, 30S, 31G]mimylin (peptide)
# peptide: {C18 diacid-γGlu}-ASELSTAALGRLSAELHELATYPRTETGSGSP-NH2
# SMILES: CC(C)C[C@H](NC(=O)[C@H](C)NC(=O)[C@H](C)NC(=O)[C@@H](NC(=O)[C@H](CO)NC(=O)[C@H](CC(C)C)NC(=O)[C@H](CCC(=O)O)NC(=O)[C@H](CO)NC(=O)[C@H](C)NC(=O)CC[C@H](NC(=O)CCCCCCCCCCCCCCCCC(=O)O)C(=O)O)[C@@H](C)O)C(=O)NCC(=O)N[C@@H](CCCNC(=N)N)C(=O)N[C@@H](CC(C)C)C(=O)N[C@@H](CO)C(=O)N[C@@H](C)C(=O)N[C@@H](CCC(=O)O)C(=O)N[C@@H](CC(C)C)C(=O)N[C@@H](Cc1c[nH]cn1)C(=O)N[C@@H](CCC(=O)O)C(=O)N[C@@H](CC(C)C)C(=O)N[C@@H](C)C(=O)N[C@H](C(=O)N[C@@H](Cc1ccc(O)cc1)C(=O)N1CCC[C@H]1C(=O)N[C@@H](CCCNC(=N)N)C(=O)N[C@H](C(=O)N[C@@H](CCC(=O)O)C(=O)N[C@H](C(=O)NCC(=O)N[C@@H](CO)C(=O)NCC(=O)N[C@@H](CO)C(=O)N1CCC[C@H]1C(N)=O)[C@@H](C)O)[C@@H](C)O)[C@@H](C)O
# B6: [N-terminal(C20 diacid-gGlu), des1, 30S, 31G, 33F]mimylin (peptide)
# peptide: {C20 diacid-γGlu}-ASELSTAALGRLSAELHELATLPRTETGSGSF-NH2
# SMILES: CC(C)C[C@H](NC(=O)[C@H](C)NC(=O)[C@H](C)NC(=O)[C@@H](NC(=O)[C@H](CO)NC(=O)[C@H](CC(C)C)NC(=O)[C@H](CCC(=O)O)NC(=O)[C@H](CO)NC(=O)[C@H](C)NC(=O)CC[C@H](NC(=O)CCCCCCCCCCCCCCCCCCC(=O)O)C(=O)O)[C@@H](C)O)C(=O)NCC(=O)N[C@@H](CCCNC(=N)N)C(=O)N[C@@H](CC(C)C)C(=O)N[C@@H](CO)C(=O)N[C@@H](C)C(=O)N[C@@H](CCC(=O)O)C(=O)N[C@@H](CC(C)C)C(=O)N[C@@H](Cc1c[nH]cn1)C(=O)N[C@@H](CCC(=O)O)C(=O)N[C@@H](CC(C)C)C(=O)N[C@@H](C)C(=O)N[C@H](C(=O)N[C@@H](CC(C)C)C(=O)N1CCC[C@H]1C(=O)N[C@@H](CCCNC(=N)N)C(=O)N[C@H](C(=O)N[C@@H](CCC(=O)O)C(=O)N[C@H](C(=O)NCC(=O)N[C@@H](CO)C(=O)NCC(=O)N[C@@H](CO)C(=O)N[C@@H](Cc1ccccc1)C(N)=O)[C@@H](C)O)[C@@H](C)O)[C@@H](C)O
# B7: [N-terminal(C20 diacid-gGlu), des1, 30S, 31G, 33H]mimylin (peptide)
# peptide: {C20 diacid-γGlu}-ASELSTAALGRLSAELHELATLPRTETGSGSH-NH2
# SMILES: CC(C)C[C@H](NC(=O)[C@H](C)NC(=O)[C@H](C)NC(=O)[C@@H](NC(=O)[C@H](CO)NC(=O)[C@H](CC(C)C)NC(=O)[C@H](CCC(=O)O)NC(=O)[C@H](CO)NC(=O)[C@H](C)NC(=O)CC[C@H](NC(=O)CCCCCCCCCCCCCCCCCCC(=O)O)C(=O)O)[C@@H](C)O)C(=O)NCC(=O)N[C@@H](CCCNC(=N)N)C(=O)N[C@@H](CC(C)C)C(=O)N[C@@H](CO)C(=O)N[C@@H](C)C(=O)N[C@@H](CCC(=O)O)C(=O)N[C@@H](CC(C)C)C(=O)N[C@@H](Cc1c[nH]cn1)C(=O)N[C@@H](CCC(=O)O)C(=O)N[C@@H](CC(C)C)C(=O)N[C@@H](C)C(=O)N[C@H](C(=O)N[C@@H](CC(C)C)C(=O)N1CCC[C@H]1C(=O)N[C@@H](CCCNC(=N)N)C(=O)N[C@H](C(=O)N[C@@H](CCC(=O)O)C(=O)N[C@H](C(=O)NCC(=O)N[C@@H](CO)C(=O)NCC(=O)N[C@@H](CO)C(=O)N[C@@H](Cc1c[nH]cn1)C(N)=O)[C@@H](C)O)[C@@H](C)O)[C@@H](C)O
# Columns and labels:
# [1] = target: T1, human amylin 3(a) receptor (human calcitonin receptor co-expressed with RAMP-3) on BHK570/CRE-luc cells (human, UniProt P30988 25-474; O60896 24-148); experiment: cell-based or functional assay
# T1 sequence (looked up) 1: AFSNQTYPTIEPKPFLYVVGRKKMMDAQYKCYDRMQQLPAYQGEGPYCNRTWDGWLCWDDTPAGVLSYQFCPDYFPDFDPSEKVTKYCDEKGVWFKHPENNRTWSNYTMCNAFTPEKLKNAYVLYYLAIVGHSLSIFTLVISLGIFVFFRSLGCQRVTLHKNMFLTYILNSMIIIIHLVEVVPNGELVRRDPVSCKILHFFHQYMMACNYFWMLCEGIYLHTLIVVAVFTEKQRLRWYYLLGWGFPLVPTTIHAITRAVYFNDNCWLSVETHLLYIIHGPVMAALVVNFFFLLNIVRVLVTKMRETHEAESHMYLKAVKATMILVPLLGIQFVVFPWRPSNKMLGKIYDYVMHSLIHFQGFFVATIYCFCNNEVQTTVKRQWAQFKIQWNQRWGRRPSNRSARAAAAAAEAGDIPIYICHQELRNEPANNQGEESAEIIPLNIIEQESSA
# T1 sequence (looked up) 2: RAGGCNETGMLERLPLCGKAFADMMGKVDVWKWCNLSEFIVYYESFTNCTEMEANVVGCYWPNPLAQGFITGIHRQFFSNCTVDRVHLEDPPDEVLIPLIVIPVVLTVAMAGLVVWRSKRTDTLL
# [2] = target: T2, human calcitonin receptor on BHK570/CRE-luc cells (human, UniProt P30988 25-474); experiment: cell-based or functional assay
# T2 sequence (looked up): T1 sequence (looked up) 1
binder,measurement,setting,value
B1,"hAmylin-R funct. EC50 (pM), tested with HSA",[1],328 pM
same,"hCTR funct. EC50 (pM), tested with HSA",[2],154 pM
B2,"hAmylin-R funct. EC50 (pM), tested with HSA",[1],62 pM
same,"hCTR funct. EC50 (pM), tested with HSA",[2],49 pM
B3,"hAmylin-R funct. EC50 (pM), tested with HSA",[1],168 pM
same,"hCTR funct. EC50 (pM), tested with HSA",[2],78 pM
B4,"hAmylin-R funct. EC50 (pM), tested with HSA",[1],82 pM
same,"hCTR funct. EC50 (pM), tested with HSA",[2],51 pM
B5,"hAmylin-R funct. EC50 (pM), tested with HSA",[1],24 pM
same,"hCTR funct. EC50 (pM), tested with HSA",[2],15 pM
B6,"hAmylin-R funct. EC50 (pM), tested with HSA",[1],94 pM
same,"hCTR funct. EC50 (pM), tested with HSA",[2],73 pM
B7,"hAmylin-R funct. EC50 (pM), tested with HSA",[1],125 pM
same,"hCTR funct. EC50 (pM), tested with HSA",[2],72 pM
